These results are taken from patent US20240101695A1 (University of California, published 2024).

One assay has as its target T1, human FcεRI (human, UniProt P12319 26-257).
T1 construct: whole, on cells; Multi-subunit receptor; In the PCA assay it is the humanized FcεRI of transgenic huFcεRI mice; also called huFcεRI
T1 sequence (looked up): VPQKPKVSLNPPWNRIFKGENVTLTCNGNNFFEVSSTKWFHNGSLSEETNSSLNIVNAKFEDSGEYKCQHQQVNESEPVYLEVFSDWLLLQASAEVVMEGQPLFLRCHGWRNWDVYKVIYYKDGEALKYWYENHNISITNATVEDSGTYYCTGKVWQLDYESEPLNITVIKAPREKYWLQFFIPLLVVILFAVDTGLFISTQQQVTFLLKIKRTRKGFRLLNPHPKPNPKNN
Put plainly: flow cytometry on RBL SX-38 cells expressing human FcεRI. On the procedure:
Human MM cells (MM.1S) expressing CD138 were incubated with either IgE isotype control (non-targeting control), anti-CD138 IgG1, or anti-CD138 IgE. The rat basophilic leukemia cells RBL SX-38 expressing human FcεRI were incubated with either IgE isotype control, anti-CD138 IgG1, or anti-CD138 IgE. Antibody binding was detected using a PE-conjugated goat F(ab′)₂ anti-human κ antibody. Grey line histograms represent cells incubated with secondary antibody only (“no antibody”). Black line histograms represent cells incubated with primary antibodies (IgE isotype control, anti-CD138 IgG1, or anti-CD138 IgE).
Human MM cells (MM.1S) expressing TfR1 were incubated with either IgE isotype control (non-targeting control) or anti-TfR1 IgE. […] Antibody binding was detected using a PE-conjugated mouse IgG1 anti-human IgE antibody. […]
Antigen binding of the anti-CD38 IgE, anti-CD138 IgE, and anti-TfR1 IgE antibodies was studied by flow cytometry using the human multiple myeloma (MM) cell line MM.1S purchased from the American Type Culture Collection (ATCC, Manassas, VA, USA; ATCC® CRL-2974™). […] Binding to FcεRI was also assessed by flow cytometry using the rat basophilic leukemia cell line RBL SX-38 expressing human FcεRI¹¹³ kindly provided by Dr. Jean-Pierre Kinet (Beth Israel Deaconess Medical Center, Boston, MA, USA). […]

For assay [1], the target named is T2, human transferrin receptor 1 (TfR1) (human, UniProt P02786 1-760).
T2 construct: whole, on cells; Endogenous antigen on MM.1S cells; also called transferrin receptor protein 1; CD71
In words: flow cytometry on MM.1S cells expressing TfR1. As for the experimental part: Human MM cells (MM.1S) expressing TfR1 were incubated with either IgE isotype control (non-targeting control) or anti-TfR1 IgE. The rat basophilic leukemia cells RBL SX-38 expressing human FcεRI were incubated with either IgE isotype control or anti-TfR1 IgE. Antibody binding was detected using a PE-conjugated mouse IgG1 anti-human IgE antibody. Grey filled histograms represent cells incubated with secondary antibody only (“no antibody”). Empty black line histograms represent cells incubated with primary antibodies (IgE isotype control or anti-TfR1 IgE).
(§1) Antigen binding of the anti-CD38 IgE, anti-CD138 IgE, and anti-TfR1 IgE antibodies was studied by flow cytometry using the human multiple myeloma (MM) cell line MM.1S purchased from the American Type Culture Collection (ATCC, Manassas, VA, USA; ATCC® CRL-2974™). […] Binding to FcεRI was also assessed by flow cytometry using the rat basophilic leukemia cell line RBL SX-38 expressing human FcεRI¹¹³ kindly provided by Dr. Jean-Pierre Kinet (Beth Israel Deaconess Medical Center, Boston, MA, USA). […] Samples were analyzed on a BD LSRII analytical flow cytometer (BD Biosciences, San Jose, CA, USA) and 10,000 events were collected. […]
(Flow cytometry measures light scatter and fluorescence of single cells or particles in a stream.)

The target in another assay is T3, human CD138 (human, UniProt P18827 23-310).
T3 construct: whole, on cells; Endogenous antigen on MM.1S, MDA-MB-468 and SK-BR-3 cells; also called syndecan-1
T3 sequence (looked up): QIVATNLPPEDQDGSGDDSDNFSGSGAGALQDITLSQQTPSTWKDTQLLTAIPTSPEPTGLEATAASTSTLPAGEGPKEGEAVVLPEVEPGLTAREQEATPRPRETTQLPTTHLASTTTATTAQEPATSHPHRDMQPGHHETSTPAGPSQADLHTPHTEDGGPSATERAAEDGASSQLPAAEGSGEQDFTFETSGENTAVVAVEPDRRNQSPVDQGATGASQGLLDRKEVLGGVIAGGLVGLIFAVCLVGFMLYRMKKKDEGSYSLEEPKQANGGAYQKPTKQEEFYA
In words: flow cytometry on MDA-MB-468 and SK-BR-3 cells expressing CD138. As for the experimental part: Human triple negative breast cancer (TNBC) cells (MDA-MB-468) and human HER2/neu positive breast cancer cells (SK-BR-3) expressing CD138 were incubated with either IgE isotype control (non-targeting control) or anti-CD138 IgE. Antibody binding was detected using a PE-conjugated goat F(ab′)₂ anti-human κ antibody. Grey filled histograms represent cells incubated with secondary antibody only (“no antibody”). Empty black line histograms represent cells incubated with primary antibodies (IgE isotype control or anti-CD138 IgE).
as §1

T2 sequence (P02786 whole entry): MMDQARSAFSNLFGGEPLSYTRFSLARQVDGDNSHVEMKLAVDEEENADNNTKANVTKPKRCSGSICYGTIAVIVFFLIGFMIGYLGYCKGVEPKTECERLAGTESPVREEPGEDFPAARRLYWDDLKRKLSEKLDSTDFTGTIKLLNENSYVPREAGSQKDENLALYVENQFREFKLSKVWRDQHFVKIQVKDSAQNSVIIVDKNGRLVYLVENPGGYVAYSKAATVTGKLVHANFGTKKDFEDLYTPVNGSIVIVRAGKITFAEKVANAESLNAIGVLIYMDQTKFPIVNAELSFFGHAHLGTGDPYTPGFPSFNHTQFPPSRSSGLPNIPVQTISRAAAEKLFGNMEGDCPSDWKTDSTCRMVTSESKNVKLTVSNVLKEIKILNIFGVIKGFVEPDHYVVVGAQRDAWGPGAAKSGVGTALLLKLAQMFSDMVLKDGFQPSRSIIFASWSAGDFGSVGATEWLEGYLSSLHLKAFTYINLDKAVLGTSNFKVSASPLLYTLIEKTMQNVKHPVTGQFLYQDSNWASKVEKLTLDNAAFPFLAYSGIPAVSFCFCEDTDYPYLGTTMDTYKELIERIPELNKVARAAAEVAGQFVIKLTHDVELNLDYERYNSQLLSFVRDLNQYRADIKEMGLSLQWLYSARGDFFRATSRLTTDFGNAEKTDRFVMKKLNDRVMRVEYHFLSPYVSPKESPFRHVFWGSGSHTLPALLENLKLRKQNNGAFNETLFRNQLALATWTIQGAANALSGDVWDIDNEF

B1: anti-TfR1 IgE (antibody)
heavy: EVQLQQSGPELVKPGASMKISCKASGYSFTGYTMNWVKQSHGENLEWIGRINPHNGGTDYNQKFKDKAPLTVDKSSNTAYMELLSLTSGDSAVYYCARGYYYYSLDYWGQGTSVTVSSASTQSPSVFPLTRCCKNIPSNATSVTLGCLATGYFPEPVMVTWDTGSLNGTTMTLPATTLTLSGHYATISLLTVSGAWAKQMFTCRVAHTPSSTDWVDNKTFSVCSRDFTPPTVKILQSSCDGGGHFPPTIQLLCLVSGYTPGTINITWLEDGQVMDVDLSTASTTQEGELASTQSELTLSQKHWLSDRTYTCQVTYQGHTFEDSTKKCADSNPRGVSAYLSRPSPFDLFIRKSPTITCLVVDLAPSKGTVNLTWSRASGKPVNHSTRKEEKQRNGTLTVTSTLPVGTRDWIEGETYQCRVTHPHLPRALMRSTTKTSGPRAAPEVYAFATPEWPGSRDKRTLACLIQNFMPEDISVQWLHNEVQLPDARHSTTQPRKTKGSGFFVFSRLEVTRAEWEQKDEFICRAVHEAASPSQTVQRAVSVNPGK
light: QIVLTQSPAIMSVSPGEKVTMTCSASSSIRYIHWYQQRPGTSPKRWIYDTSNLASGVPARFSGSGSGTSYSLTISSMEAEDAATYYCHQRNSYPWTFGGGTRLEIRRTVAAPSVFIFPPSDEQLKSGTASVVCLLNNFYPREAKVQWKVDNALQSGNSQESVTEQDSKDSTYSLSSTLTLSKADYEKHKVYACEVTHQGLSSPVTKSFNRGEC
notes: Mouse/human chimeric IgE; also called TfR1-Targeted Antibody; anti-TfR1 IgE antibody
As for B1, the binding result (with human FcεRI; in assay [1]) was “binds” each time.

B2: anti-CD138 IgE (antibody)
heavy: QVQLQQSGSELMMPGASVKISCKATGYTFSNYWIEWVKQRPGHGLEWIGEILPGTGRTIYNEKFKGKATFTADISSNTVQMQLSSLTSEDSAVYYCARRDYYGNFYYAMDYWGQGTSVTVSSASTQSPSVFPLTRCCKNIPSNATSVTLGCLATGYFPEPVMVTWDTGSLNGTTMTLPATTLTLSGHYATISLLTVSGAWAKQMFTCRVAHTPSSTDWVDNKTFSVCSRDFTPPTVKILQSSCDGGGHFPPTIQLLCLVSGYTPGTINITWLEDGQVMDVDLSTASTTQEGELASTQSELTLSQKHWLSDRTYTCQVTYQGHTFEDSTKKCADSNPRGVSAYLSRPSPFDLFIRKSPTITCLVVDLAPSKGTVNLTWSRASGKPVNHSTRKEEKQRNGTLTVTSTLPVGTRDWIEGETYQCRVTHPHLPRALMRSTTKTSGPRAAPEVYAFATPEWPGSRDKRTLACLIQNFMPEDISVQWLHNEVQLPDARHSTTQPRKTKGSGFFVFSRLEVTRAEWEQKDEFICRAVHEAASPSQTVQRAVSVNPGK
light: DIQMTQSTSSLSASLGDRVTISCSASQGINNYLNWYQQKPDGTVELLIYYTSTLQSGVPSRFSGSGSGTDYSLTISNLEPEDIGTYYCQQYSKLPRTFGGGTKLEIKRTVAAPSVFIFPPSDEQLKSGTASVVCLLNNFYPREAKVQWKVDNALQSGNSQESVTEQDSKDSTYSLSSTLTLSKADYEKHKVYACEVTHQGLSSPVTKSFNRGEC
notes: Mouse/human chimeric IgE; also called CD138-Targeted Antibody; anti-CD138 IgE antibody
With B2, the binding result with human FcεRI and in the assay with human CD138 was “binds” each time.
